Laboratory results as given in patent US20250002593A1 (INMAGENE PTE, published 2025).
Where two headings read alike, the source gives them in different places.

Key:
[1] = molecular target: T1, Recombinant cynomolgus IL36R protein (Acrobio, Cat #IL2-C52H5) (cynomolgus, UniProt A0A2K5WSK9 20-335); assay: BLI, antibody on Protein A sensor, recombinant cynomolgus IL36R as analyte
T1 construct: Bought; also called cyno IL-36R
T1 sequence: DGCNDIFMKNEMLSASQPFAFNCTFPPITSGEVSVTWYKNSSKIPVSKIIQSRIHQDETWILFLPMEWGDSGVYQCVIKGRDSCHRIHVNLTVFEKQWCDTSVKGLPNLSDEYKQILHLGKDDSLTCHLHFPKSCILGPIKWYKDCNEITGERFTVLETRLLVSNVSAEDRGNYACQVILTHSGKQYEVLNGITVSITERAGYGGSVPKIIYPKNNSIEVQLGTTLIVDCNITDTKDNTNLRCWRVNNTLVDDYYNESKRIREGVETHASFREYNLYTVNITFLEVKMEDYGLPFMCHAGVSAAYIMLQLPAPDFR

membrane hIL-36R [2] = molecular target: T2, membrane hIL-36R (human, UniProt Q9HB29 20-575); assay: cell-based or functional assay
T2 sequence: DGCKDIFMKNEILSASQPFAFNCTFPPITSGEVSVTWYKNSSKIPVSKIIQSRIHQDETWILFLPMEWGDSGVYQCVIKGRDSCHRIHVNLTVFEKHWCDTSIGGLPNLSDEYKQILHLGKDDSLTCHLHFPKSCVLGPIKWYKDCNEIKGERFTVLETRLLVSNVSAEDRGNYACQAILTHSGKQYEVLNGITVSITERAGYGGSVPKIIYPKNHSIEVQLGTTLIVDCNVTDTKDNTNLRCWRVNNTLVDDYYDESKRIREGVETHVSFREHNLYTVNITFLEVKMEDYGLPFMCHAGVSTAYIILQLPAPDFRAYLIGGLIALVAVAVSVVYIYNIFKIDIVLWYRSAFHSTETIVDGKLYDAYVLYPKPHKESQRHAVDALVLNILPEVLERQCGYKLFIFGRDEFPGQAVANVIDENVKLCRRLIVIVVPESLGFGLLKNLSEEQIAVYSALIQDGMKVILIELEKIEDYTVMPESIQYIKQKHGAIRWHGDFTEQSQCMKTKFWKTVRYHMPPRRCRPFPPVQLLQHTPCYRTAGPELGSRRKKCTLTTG

[3] = molecular target: T3, Recombinant hIL-36R protein (Acrobio, Cat #IL2-H52H6) (human, UniProt Q9HB29 20-335); assay: BLI as in Example 2, antibody on Protein A sensor, hIL-36R analyte
T3 construct: Bought soluble protein; also called recombinant human IL-36R protein
T3 sequence: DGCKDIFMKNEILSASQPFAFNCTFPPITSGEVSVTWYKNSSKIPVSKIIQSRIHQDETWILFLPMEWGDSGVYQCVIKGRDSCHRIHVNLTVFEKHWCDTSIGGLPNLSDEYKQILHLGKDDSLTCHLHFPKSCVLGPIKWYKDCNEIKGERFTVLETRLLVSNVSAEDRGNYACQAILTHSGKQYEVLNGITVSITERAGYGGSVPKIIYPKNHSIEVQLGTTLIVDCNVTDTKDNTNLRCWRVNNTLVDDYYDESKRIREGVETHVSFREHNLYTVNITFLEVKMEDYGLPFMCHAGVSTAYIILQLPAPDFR

[4] = molecular target: T4, mouse IL-36R (R&D, Cat #2354-RP) (mouse, UniProt Q9ERS7 22-338, limits assumed); assay: BLI, antibody on Protein A sensor, recombinant mouse IL-36R as analyte
T4 construct: Bought; also called recombinant mouse IL-36R protein
T4 sequence (looked up): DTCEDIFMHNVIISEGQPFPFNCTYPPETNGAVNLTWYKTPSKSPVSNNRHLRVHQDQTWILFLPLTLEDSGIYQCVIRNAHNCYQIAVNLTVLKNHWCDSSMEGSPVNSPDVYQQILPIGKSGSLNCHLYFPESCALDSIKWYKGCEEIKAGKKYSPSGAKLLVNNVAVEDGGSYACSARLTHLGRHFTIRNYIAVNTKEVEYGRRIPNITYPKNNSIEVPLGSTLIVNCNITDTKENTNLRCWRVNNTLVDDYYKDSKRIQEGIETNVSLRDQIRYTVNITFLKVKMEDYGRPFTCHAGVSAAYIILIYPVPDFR

membrane hIL-36R [5] = molecular target: T2, membrane hIL-36R; assay: cell-based or functional assay; remark: listed apart in the source
membrane hIL-36R [6] = molecular target: T2, membrane hIL-36R; assay: flow cytometry on HEK293 cells transfected with pcDNA3.1-hIL36R, FITC anti-hIgG, MFI (median); unit taken from the x axis
membrane hIL-36R [7] = molecular target: T2, membrane hIL-36R; assay: cell-based or functional assay; remark: listed apart in the source
recombinant hIL-36R-his = molecular target: T5, recombinant hIL-36R-his (human, UniProt Q9HB29 20-337); assay: ELISA on coated recombinant hIL36R protein (1 µg/ml), detection with HRP anti-hIgG; unit taken from the x axis Ab(µg/mL)
T5 construct: Residues 1-337 (extracellular domain) are stated for the IL-36R-his used as immunogen; The range includes the signal peptide; no cleavage site is stated; also called recombinant hIL36R protein; recombinant human IL-36R-his protein; not shown: His tag
T5 sequence: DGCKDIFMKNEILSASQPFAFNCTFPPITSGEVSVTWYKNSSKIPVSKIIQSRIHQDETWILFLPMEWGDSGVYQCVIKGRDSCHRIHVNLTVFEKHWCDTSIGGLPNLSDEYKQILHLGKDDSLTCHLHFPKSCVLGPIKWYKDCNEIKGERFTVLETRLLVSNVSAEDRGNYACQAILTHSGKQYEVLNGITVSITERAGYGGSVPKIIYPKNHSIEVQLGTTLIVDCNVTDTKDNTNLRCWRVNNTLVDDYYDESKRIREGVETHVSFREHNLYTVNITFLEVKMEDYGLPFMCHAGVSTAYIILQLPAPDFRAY

[8] = molecular target: T3, Recombinant hIL-36R protein (Acrobio, …); assay: SPR (Biacore T200, 25 C), antibody captured by Fc, hIL-36R analyte
membrane hIL-36R [9] = molecular target: T2, membrane hIL-36R; assay: cell-based or functional assay; remark: listed apart in the source
membrane hIL-36R [10] = molecular target: T2, membrane hIL-36R; assay: cell-based or functional assay; remark: listed apart in the source
membrane hIL-36R [11] = molecular target: T2, membrane hIL-36R; assay: cell-based or functional assay; remark: listed apart in the source
membrane hIL-36R [12] = molecular target: T2, membrane hIL-36R; assay: cell-based or functional assay; remark: listed apart in the source
membrane hIL-36R [13] = molecular target: T2, membrane hIL-36R; assay: cell-based or functional assay; remark: listed apart in the source
[14] = molecular target: T6, Recombinant hIL1R1 protein (human, UniProt P14778 18-332, limits assumed); assay: ELISA on coated recombinant hIL1R1 protein, detection with HRP anti-hIgG
T6 sequence (looked up): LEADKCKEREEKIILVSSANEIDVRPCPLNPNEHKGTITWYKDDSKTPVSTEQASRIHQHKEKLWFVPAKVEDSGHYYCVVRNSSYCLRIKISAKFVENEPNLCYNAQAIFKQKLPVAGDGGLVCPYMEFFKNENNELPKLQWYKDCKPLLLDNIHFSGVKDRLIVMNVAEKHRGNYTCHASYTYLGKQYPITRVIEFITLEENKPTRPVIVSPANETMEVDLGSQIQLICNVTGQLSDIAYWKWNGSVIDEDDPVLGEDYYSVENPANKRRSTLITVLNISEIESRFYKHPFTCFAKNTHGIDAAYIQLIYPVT

B1: 5F7-hu-3 (antibody, V domains shown)
VH: QVQLVESGGGLVKPGGSLRLSCAASGFAFTDYYMNWIRQAPGKGLEWVALIRNKAAGYTIYYSDSVKGRFTISRDNAKSSLYLQMNSLRAEDTAVYYCVRDMTIYDGYYVDYALDYWGQGTLVTVSS
VL: DIVMTQSPSSVSASVGDRVTITCRASQNINIWLSWYQQKPGKAPKLFIYKASNLHTGVPSRFSGSGSGTDFTLTISSLQPEDFATYYCLQSQSYPLTFGQGTKLEIK
notes: Humanized 5F7; also called humanized 5F7
binding result [1]: no binding (tested: up to 100 nM IL-36R) | IC50, IL-36R reporter assay: inhibition of ligand induced luminescence in Jurkat-IL36R-IL1Racp-NFkB-luc cells (membrane hIL-36R [2]): 0.0637 µg/mL | Kd [3]: 4.55 nM | koff [3]: 0.000194 s⁻¹ | kon [3]: 42700 M⁻¹ s⁻¹ | binding result [4]: no binding (tested: up to 100 nM IL-36R)

B2: BI655130 (antibody, V domains shown)
VH: QVQLVQSGAEVKKPGASVKVSCKASGYSFTSSWIHWVKQAPGQGLEWMGEINPGNVRTNYNENFRNKVTMTVDTSISTAYMELSRLRSDDTAVYYCTVVFYGEPYFPYWGQGTLVTVSS
VL: QIVLTQSPGTLSLSPGERATMTCTASSSVSSSYFHWYQQKPGQAPRLWIYRTSRLASGVPDRFSGSGSGTDFTLTISRLEPEDAATYYCHQFHRSPLTFGAGTKLEIK
notes: also called benchmark antibody
IC50, inhibition of IL-36α induced IL-8 release in primary human dermal fibroblast (HDF) cells (IL-8 ELISA, OD450) (membrane hIL-36R [5]): 0.00361 µg/mL | EC50 (membrane hIL-36R [6]): 0.0875 µg/mL | IC50, IL-36R reporter assay: inhibition of IL-36α induced luminescence in Jurkat-IL36R-IL1Racp-NFkB-luc cells (membrane hIL-36R [7]): 0.057 nM | EC50 (recombinant hIL-36R-his): 0.0111 µg/mL | Kd [8]: 0.935 nM | koff [8]: 3.66e-05 s⁻¹ | kon [8]: 39200 M⁻¹ s⁻¹ | IC50, inhibition of IL-36α induced IL-6 release in primary human epithelial keratinocytes (HEK cells) [panel IL-6] (membrane hIL-36R [9]): 0.0982 µg/mL | IC50, inhibition of IL-36α induced IL-8 release in primary human epithelial keratinocytes (HEK cells) [panel IL-8] (membrane hIL-36R [9]): 0.0684 µg/mL | IC50, inhibition of IL-36α induced TNF-α release in primary human epithelial keratinocytes (HEK cells) [panel TNF-α] (membrane hIL-36R [9]): 0.027 µg/mL | IC50, inhibition of IL-36β induced IL-6 release in primary human epithelial keratinocytes (HEK cells) [panel IL-6] (membrane hIL-36R [10]): 0.0229 µg/mL | IC50, inhibition of IL-36β induced IL-8 release in primary human epithelial keratinocytes (HEK cells) [panel IL-8] (membrane hIL-36R [10]): 0.0293 µg/mL | IC50, inhibition of IL-36β induced TNF-α release in primary human epithelial keratinocytes (HEK cells) [panel TNF-α] (membrane hIL-36R [10]): 0.0107 µg/mL | IC50, inhibition of IL-36γ induced IL-6 release in primary human epithelial keratinocytes (HEK cells) [panel IL-6] (membrane hIL-36R [11]): 0.0138 µg/mL | IC50, inhibition of IL-36γ induced IL-8 release in primary human epithelial keratinocytes (HEK cells) [panel IL-8] (membrane hIL-36R [11]): 0.0077 µg/mL | IC50, inhibition of IL-36γ induced TNF-α release in primary human epithelial keratinocytes (HEK cells) [panel TNF-α] (membrane hIL-36R [11]): 0.00575 µg/mL | IC50, inhibition of IL-36α induced IL-8 release in A431 cells (IL-8 ELISA, OD450) [panel IL-36α] (membrane hIL-36R [12]): 0.0955 µg/mL | IC50, inhibition of IL-36β induced IL-8 release in A431 cells (IL-8 ELISA, OD450) [panel IL-36β] (membrane hIL-36R [12]): 0.0532 µg/mL | IC50, inhibition of IL-36γ induced IL-8 release in A431 cells (IL-8 ELISA, OD450) [panel IL-36γ] (membrane hIL-36R [12]): 0.0065 µg/mL | IC50, IL-36R reporter assay: inhibition of ligand induced luminescence in Jurkat-IL36R-IL1Racp-NFkB-luc cells (membrane hIL-36R [13]): 0.0133 µg/mL | IC50, IL-36R reporter assay: inhibition of ligand induced luminescence in Jurkat-IL36R-IL1Racp-NFkB-luc cells (printed BI 655130) (membrane hIL-36R [2]): 0.0217 µg/mL | binding result [14]: no binding (tested: 1 µg/mL) | binding result [4]: no binding (tested: up to 100 nM IL-36R)
